Experimental data: patent publication US20260207767A1 (ANAVEON, published 2026)
Read-outs that look alike come from different tables or passages of the source. Values belong to the binder of their own block, whether it stands above or below them.

What was measured:
[1] = target: T1, cynoPD-1 His (AcroBiosystems PD1-C5223) (cynomolgus monkey, UniProt B0LAJ3 25-170); experiment: SPR, Ab captured, PD-1 analyte
T1 construct: also called cPD-1; cynomolgus PD-1 His-tagged
Protocol: (§1) 10 mM glycine (pH 1.5) as regeneration buffer was injected to flow cells following every dissociation phase.

[2] = target: T2, hPD-1 His-tagged (human, UniProt Q15116 25-167); experiment: SPR, Ab captured, PD-1 analyte
T2 construct: also called recombinant hPD-1 (AcroBio)
T2 sequence (Q15116 25-167 limits assumed): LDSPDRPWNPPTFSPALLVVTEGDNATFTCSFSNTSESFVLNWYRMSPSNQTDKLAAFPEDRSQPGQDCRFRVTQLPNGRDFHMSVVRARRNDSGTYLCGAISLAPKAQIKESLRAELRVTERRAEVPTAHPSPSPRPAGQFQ
Protocol: as §1

[3] = target: T3, human PD-1 expressed on cells (human, UniProt Q15116 25-288); experiment: flow cytometry, CHO-S hPD-1
T3 construct: whole, on cells; cell line named under assay; also called CHO-S hPD-1; Raji PD-1
T3 sequence (Q15116 25-288): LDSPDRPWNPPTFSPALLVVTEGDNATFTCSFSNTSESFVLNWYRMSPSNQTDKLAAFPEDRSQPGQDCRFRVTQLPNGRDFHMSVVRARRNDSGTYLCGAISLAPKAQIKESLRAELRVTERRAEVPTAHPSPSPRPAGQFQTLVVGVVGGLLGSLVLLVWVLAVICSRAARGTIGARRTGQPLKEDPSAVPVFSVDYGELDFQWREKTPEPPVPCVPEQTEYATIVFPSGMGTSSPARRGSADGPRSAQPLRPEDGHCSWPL
Protocol: CHO-S hPD-1 cells were incubated with a 5-fold serial dilution of the indicated humanized antibodies. Antibody binding was detected with goat anti-human IgG-PE. MFI were plotted over the antibody concentration to obtain EC50 values.

[4] = target: T1, cynoPD-1 His (AcroBiosystems PD1-C5223); experiment: SPR, Ab captured, PD-1 analyte; remark: listed apart in the source
Protocol: (§2) Anti-human Fc IgG (Jackson) was immobilized on amine reactive CM5 chips (GE Healthcare) using 1×HBS-EP+ running buffer (GE Healthcare). The test antibodies were captured at flow rate 10 μl/min with 30 s contact time. […] Regeneration was carried out with 10 mM Glycine-HCl, pH 1.5 at flow rate 10 μL/min. This protocol is to be used, unless stated otherwise, in determination of Kd wherever used to define the KD of antibodies specified herein, with adaptions where necessary with regard to the nature of the interaction partners.

[5] = target: T4, hPD-1 Avi-Tag Biotin (AcroBiosystems PD1-H82E4) (human, UniProt Q15116 25-167, biotin on Avi-Tag); experiment: SPR, Ab captured, PD-1 analyte
T4 construct: bought; also called human PD-1
T4 sequence (Q15116 25-167 limits assumed): as the sequence (Q15116 25-167 limits assumed) above
Protocol: as §2

[6] = target: T5, recombinant cynoPD-1 (construct not stated) (cynomolgus monkey, UniProt B0LAJ3 25-170); experiment: SPR, Ab captured, PD-1 analyte
T5 construct: not shown: probably His as elsewhere
T5 sequence (B0LAJ3 entry or part of it limits assumed): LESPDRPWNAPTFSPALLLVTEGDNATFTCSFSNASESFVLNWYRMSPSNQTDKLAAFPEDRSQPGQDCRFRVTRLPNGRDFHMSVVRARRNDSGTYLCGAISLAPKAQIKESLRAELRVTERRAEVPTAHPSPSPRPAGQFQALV
Protocol: (§3) Recombinant humanized antibody variants of ZJN296 were expressed as human IgG1 in HEK293 cells. For SPR analysis (Biacore 8K, GE Healthcare) anti-human Fc IgG (Bethyl, A80-304P) was immobilized on CM5 chips (Cytiva) using 1×HBS-EP+ running buffer. […] 10 mM glycine (pH 1.5) as regeneration buffer was injected to flow cells following every dissociation phase.

[7] = target: T6, recombinant hPD-1 (construct not stated) (human, UniProt Q15116 25-167, limits assumed); experiment: SPR, Ab captured, PD-1 analyte
T6 construct: also called huPD-1; Human PD1
T6 sequence (Q15116 25-167 limits assumed): as the sequence (Q15116 25-167 limits assumed) above
Protocol: as §3

T1 sequence (B0LAJ3 entry or part of it limits assumed): as the sequence (B0LAJ3 entry or part of it limits assumed) above

EC50 [3]: 5.47 nM
Top MFI [3]: 46200 MFI
Kd [4]: 57.7 nM
koff [4]: 0.00331 s⁻¹
kon [4]: 57400 M⁻¹ s⁻¹
Kd [5]: 16.2 nM
koff [5]: 0.00142 s⁻¹
kon [5]: 87400 M⁻¹ s⁻¹
B5: z3-XVT458 (antibody, human IgG1, kappa, V domains shown)
VH: QVQLVQSGAEVKKPGASVKVSCKASGYTFTNFYIHWVRQAPGQGLEWMGSIYPNYGDTAYNQKFKDRVTMTTDKSTSTAYMELRSLRSDDTAVYYCARGYSYAMDYWGQGTTVTVSS
VL: DIQMTQSPSSVSASVGDRVTITCSASQGISGDLNWYQQKPGKAPKLLIYHTSSLHSGVPSRFSGSGSGTDFTLTISSLQPEDFATYYCQYYSKDLLTFGGGTKLEIKR
notes: hIgG1; numbering as for z1; also called GH + T073K

EC50 [3]: 3.88 nM
Top MFI [3]: 46000 MFI
Kd [4]: 54.4 nM
koff [4]: 0.00321 s⁻¹
kon [4]: 58900 M⁻¹ s⁻¹
Kd [5]: 14.3 nM
koff [5]: 0.00136 s⁻¹
kon [5]: 95700 M⁻¹ s⁻¹
B6: z7-XVT458 (antibody, human IgG1, kappa, V domains shown)
VH: QVQLVQSGAEVKKPGASVKVSCKASGYTFTNFYIHWVRQAPGQGLEWMGSIYPNYGDTAYNQKFKDRATMTVDKSTSTAYMELRSLRSDDTAVYYCARGYSYAMDYWGQGTTVTVSS
VL: DIQMTQSPSSVSASVGDRVTITCSASQGISGDLNWYQQKPGKAPKLLIYHTSSLHSGVPSRFSGSGSGTDFTLTISSLQPEDFATYYCQYYSKDLLTFGGGTKLEIKR
notes: hIgG1; numbering as for z1; also called GH + V067A + T071V + T073K

EC50 [3]: 5.74 nM
Top MFI [3]: 45200 MFI
Kd [4]: 56.7 nM
koff [4]: 0.00358 s⁻¹
kon [4]: 63200 M⁻¹ s⁻¹
Kd [5]: 16.1 nM
koff [5]: 0.00147 s⁻¹
kon [5]: 91100 M⁻¹ s⁻¹
B7: z0-XVT458 (antibody, human IgG1, kappa, V domains shown)
VH: QVQLVQSGAEVKKPGASVKVSCKASGYTFTNFYIHWVRQAPGQGLEWMGSIYPNYGDTAYNQKFKDRVTMTTDTSTSTAYMELRSLRSDDTAVYYCARGYSYAMDYWGQGTTVTVSS
VL: DIQMTQSPSSVSASVGDRVTITCSASQGISGDLNWYQQKPGKAPKLLIYHTSSLHSGVPSRFSGSGSGTDFTLTISSLQPEDFATYYCQYYSKDLLTFGGGTKLEIKR
notes: hIgG1; also called GH + uVL

EC50 [3]: 5.85 nM
Top MFI [3]: 45200 MFI
Kd [4]: 57.3 nM
koff [4]: 0.00359 s⁻¹
kon [4]: 62700 M⁻¹ s⁻¹
Kd [5]: 15.9 nM
koff [5]: 0.00146 s⁻¹
kon [5]: 92300 M⁻¹ s⁻¹
B8: z1-XVT458 (antibody, human IgG1, kappa, V domains shown)
VH: QVQLVQSGAEVKKPGASVKVSCKASGYTFTNFYIHWVRQAPGQGLEWMGSIYPNYGDTAYNQKFKDRATMTTDTSTSTAYMELRSLRSDDTAVYYCARGYSYAMDYWGQGTTVTVSS
VL: DIQMTQSPSSVSASVGDRVTITCSASQGISGDLNWYQQKPGKAPKLLIYHTSSLHSGVPSRFSGSGSGTDFTLTISSLQPEDFATYYCQYYSKDLLTFGGGTKLEIKR
notes: hIgG1; also called GH + V067A

EC50 [3]: 3.93 nM
Top MFI [3]: 46800 MFI
Kd [4]: 53.8 nM
koff [4]: 0.00314 s⁻¹
kon [4]: 58400 M⁻¹ s⁻¹
Kd [5]: 14.5 nM
koff [5]: 0.00133 s⁻¹
kon [5]: 92000 M⁻¹ s⁻¹
B9: z6-XVT458 (antibody, human IgG1, kappa, V domains shown)
VH: QVQLVQSGAEVKKPGASVKVSCKASGYTFTNFYIHWVRQAPGQGLEWMGSIYPNYGDTAYNQKFKDRVTMTVDKSTSTAYMELRSLRSDDTAVYYCARGYSYAMDYWGQGTTVTVSS
VL: DIQMTQSPSSVSASVGDRVTITCSASQGISGDLNWYQQKPGKAPKLLIYHTSSLHSGVPSRFSGSGSGTDFTLTISSLQPEDFATYYCQYYSKDLLTFGGGTKLEIKR
notes: hIgG1; numbering as for z1; also called GH + T071V + T073K

Kd [6]: 72.7 nM
koff [6]: 0.00433 s⁻¹
kon [6]: 59600 M⁻¹ s⁻¹
Kd [7]: 5.72 nM
koff [7]: 0.000324 s⁻¹
kon [7]: 56500 M⁻¹ s⁻¹
B12: ZJN296-2 (antibody, V domains shown)
VH: QVQLVQSGAEVKKPGASVKVSCKASGYDFTSHWMHWVRQAPGQGLEWMGAIDPSDSYTNYNQKFKGRVTMTVDTSTSTAYMELRSLRSDDTAVYYCARSPFDYWGQGTTVTVSS
VL: DIQMTQSPSSLSASVGDRVTITCKASQDVSTAVAWYQQKPGKAPKLLIYSASYRYTGVPSRFSGSGSGTDFTFTISSLQPEDIATYYCQQHYSFPFTFGQGTKLEIK
notes: human IgG1; also called GH + T071V, GL

Kd [6]: 107 nM
koff [6]: 0.00511 s⁻¹
kon [6]: 47600 M⁻¹ s⁻¹
Kd [7]: 6.57 nM
koff [7]: 0.000369 s⁻¹
kon [7]: 56100 M⁻¹ s⁻¹
B13: ZJN296-3 (antibody, V domains shown)
VH: QVQLVQSGAEVKKPGASVKVSCKASGYDFTSHWMHWVRQAPGQGLEWMGAIDPSDSYTNYNQKFKGRVTMTTDRSTSTAYMELRSLRSDDTAVYYCARSPFDYWGQGTTVTVSS
VL: DIQMTQSPSSLSASVGDRVTITCKASQDVSTAVAWYQQKPGKAPKLLIYSASYRYTGVPSRFSGSGSGTDFTFTISSLQPEDIATYYCQQHYSFPFTFGQGTKLEIK
notes: human IgG1; also called GH + T073R, GL

The next lines start with the binder.

B1: 21A08Ap1 (antibody, V domains shown)
VH: EVQLLESGGGLVQPGGSLRLSCAASGFTFSINAMTWVRQAPGKGLEWVSTISGSGFSTYYADSLKGRFTISRDNSKNTLYLQMNSLRAEDTAVYYCAKEVYGDYWGQGTLVTVSS
VL: RSVLTQPPSASGTPGQRVSISCSGASSNIGSQSVFWYQQLPGTAPKLLIYSNNQRPSGVPDRFSGSKSGTSASLAISGLRSEDEADYYCAAWDDSLSIWVFGGGTKLTVL
notes: IgG with lambda light chain; also called 21A08p1; 21A8Ap1
Kd [1]: 3 nM
koff [1]: 0.00016 s⁻¹
kon [1]: 52000 M⁻¹ s⁻¹
Kd [2]: 0.5 nM
koff [2]: 2.9e-05 s⁻¹
kon [2]: 57000 M⁻¹ s⁻¹

B2: 21A08Ap2 (antibody, V domains shown)
VH: EVQLLESGGGLVQPGGSLRLSCAASGFTFSINAMTWVRQAPGKGLEWVSTISGSGFSTYYADSLKGRFTISRDNSKNTLYLQMNSLRAEDTAVYYCAKEVYGDYWGQGTLVTVSS
VL: RSVLTQPPSASGTPGQRVSISCSGASSNIGSSSVFWYQQLPGTAPKLLIYSNNQRPSGVPDRFSGSKSGTSASLAISGLRSEDEADYYCAAWDDSLSIWVFGGGTKLTVL
notes: IgG with lambda light chain
Kd [1]: 3.2 nM
koff [1]: 0.00019 s⁻¹
kon [1]: 59000 M⁻¹ s⁻¹
Kd [2]: 0.66 nM
koff [2]: 4.2e-05 s⁻¹
kon [2]: 64000 M⁻¹ s⁻¹

B3: 21A08Ap3 (antibody, V domains shown)
VH: EVQLLESGGGLVQPGGSLRLSCAASGFTFSINAMTWVRQAPGKGLEWVSTISGSGFSTYYADSLKGRFTISRDNSKNTLYLQMNSLRAEDTAVYYCAKEVYGDYWGQGTLVTVSS
VL: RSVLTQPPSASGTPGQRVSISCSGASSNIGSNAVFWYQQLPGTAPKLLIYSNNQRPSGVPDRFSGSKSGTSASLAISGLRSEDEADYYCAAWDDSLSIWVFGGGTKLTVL
notes: IgG
Kd [1]: 4.67 nM
koff [1]: 0.00025 s⁻¹
kon [1]: 55000 M⁻¹ s⁻¹
Kd [2]: 0.58 nM
koff [2]: 3.5e-05 s⁻¹
kon [2]: 60000 M⁻¹ s⁻¹

B4: z5-XVT458 (antibody, human IgG1, kappa, V domains shown)
VH: QVQLVQSGAEVKKPGASVKVSCKASGYTFTNFYIHWVRQAPGQGLEWMGSIYPNYGDTAYNQKFKDRATMTTDKSTSTAYMELRSLRSDDTAVYYCARGYSYAMDYWGQGTTVTVSS
VL: DIQMTQSPSSVSASVGDRVTITCSASQGISGDLNWYQQKPGKAPKLLIYHTSSLHSGVPSRFSGSGSGTDFTLTISSLQPEDFATYYCQYYSKDLLTFGGGTKLEIKR
notes: hIgG1; numbering as for z1; also called GH + V067A + T073K
EC50 [3]: 4.51 nM
Top MFI [3]: 46200 MFI
Kd [4]: 57.3 nM
koff [4]: 0.00336 s⁻¹
kon [4]: 58600 M⁻¹ s⁻¹
Kd [5]: 15.9 nM
koff [5]: 0.00145 s⁻¹
kon [5]: 91400 M⁻¹ s⁻¹

B10: z4-XVT458 (antibody, human IgG1, kappa, V domains shown)
VH: QVQLVQSGAEVKKPGASVKVSCKASGYTFTNFYIHWVRQAPGQGLEWMGSIYPNYGDTAYNQKFKDRATMTVDTSTSTAYMELRSLRSDDTAVYYCARGYSYAMDYWGQGTTVTVSS
VL: DIQMTQSPSSVSASVGDRVTITCSASQGISGDLNWYQQKPGKAPKLLIYHTSSLHSGVPSRFSGSGSGTDFTLTISSLQPEDFATYYCQYYSKDLLTFGGGTKLEIKR
notes: hIgG1; numbering as for z1; also called GH + V067A + T071V
EC50 [3]: 4.54 nM
Top MFI [3]: 46700 MFI
Kd [4]: 51 nM
koff [4]: 0.00323 s⁻¹
kon [4]: 63300 M⁻¹ s⁻¹
Kd [5]: 13.3 nM
koff [5]: 0.00131 s⁻¹
kon [5]: 98800 M⁻¹ s⁻¹

B11: ZJN296-0 (antibody, human IgG1, V domains shown)
VH: QVQLVQSGAEVKKPGASVKVSCKASGYDFTSHWMHWVRQAPGQGLEWMGAIDPSDSYTNYNQKFKGRVTMTTDTSTSTAYMELRSLRSDDTAVYYCARSPFDYWGQGTTVTVSS
VL: DIQMTQSPSSLSASVGDRVTITCKASQDVSTAVAWYQQKPGKAPKLLIYSASYRYTGVPSRFSGSGSGTDFTFTISSLQPEDIATYYCQQHYSFPFTFGQGTKLEIK
notes: human IgG1; also called humanized ZJN296-0; GH + GL
Kd [6]: 104 nM
koff [6]: 0.00641 s⁻¹
kon [6]: 61500 M⁻¹ s⁻¹
Kd [7]: 8.7 nM
koff [7]: 0.000495 s⁻¹
kon [7]: 56900 M⁻¹ s⁻¹

B14: ZJN296-6 (antibody, V domains shown)
VH: QVQLVQSGAEVKKPGASVKVSCKASGYDFTSHWMHWVRQAPGQGLEWMGAIDPSDSYTNYNQKFKGRVTMTVDRSTSTAYMELRSLRSDDTAVYYCARSPFDYWGQGTTVTVSS
VL: DIQMTQSPSSLSASVGDRVTITCKASQDVSTAVAWYQQKPGKAPKLLIYSASYRYTGVPSRFSGSGSGTDFTFTISSLQPEDIATYYCQQHYSFPFTFGQGTKLEIK
notes: human IgG1; also called GH + T071V + T073R, GL
Kd [6]: 43.9 nM
koff [6]: 0.00279 s⁻¹
kon [6]: 63600 M⁻¹ s⁻¹
Kd [7]: 3.22 nM
koff [7]: 0.000201 s⁻¹
kon [7]: 62600 M⁻¹ s⁻¹
